{
  "source": "patent US20220251236A1",
  "about": "(Boehringer Ingelheim, published 2022)",
  "binders": {"B1": {"name": "DLL3#3/CD3#1 (bispecific antibody, human IgG1, kappa, lambda, L234A L235A)", "chain 1": "DIQMTQSPSAMSASVGDRVTITCRASQGISNYLVWFQQKPGKAPKRLIYAVSSLYSGVPSRFSGSGSGTEFTLTISSLQPEDFATYYCLQHDSYPYTFGQGTKLEIKRTVAAPSVFIFPPSDEQLKSGTASVVCLLNNFYPREAKVQWKVDNALQSGNSQESVTEQDSKDSTYSLSSTLTLSKADYEKHKVYACEVTHQGLSSPVTKSFNRGECGGGGSEGKSSGSGSESKSTEGKSSGSGSESKSTGGGGSQVQLVQSGAEVKKPGASVKVSCKASGYTFTSYYVHWVRQAPGQGLEWMVIINPGGGTTSYAQKFLGRVTMTRDTSTNTVYMELKSLRSEDTAVYYCARGEAVTGNYFYYGMDVWGQGTTVTVSSASTKGPSVFPLAPSSKSTSGGTAALGCLVKDYFPEPVTVSWNSGALTSGVHTFPAVLQSSGLYSLSSVVTVPSSSLGTQTYICNVNHKPSNTKVDKRVEPKSCDKTHTCPPCPAPEAAGGPSVFLFPPKPKDTLMISRTPEVTCVVVDVSHEDPEVKFNWYVDGVEVHNAKTKPREEQYNSTYRVVSVLTVLHQDWLNGKEYKCKVSNKALPAPIEKTISKAKGQPREPQVYTLPPSREEMTKNQVSLWCLVKGFYPSDIAVEWESNGQPENNYKTTPPVLDSDGSFFLYSKLTVDKSRWQQGNVFSCSVMHEALHNHYTQKSLSLSPG", "chain 2": "EAVVTQEPSLTVSPGGTVTLTCRSSTGAVTTSNYANWVQEKPGQLPRGLIGGTNKRAPWVPARFSGSLLGGKAALTLSGAQPEDEAEYFCALWYSNLWVFGGGTKLTVLGQPKAAPSVTLFPPSSEELQANKATLVCLISDFYPGAVKVAWKADGSPVNTGVETTTPSKQSNNKYAASSYLSLTPEQWKSHRSYSCQVTHEGSTVEKTVAPAECSGGGGSEGKSSGSGSESKSTEGKSSGSGSESKSTGGGGSEVQLVESGGGLVQPGGSLKLSCAASGFTFNTYAMNWVRQAPGKGLEWVARIRSKYNNYATYYADSVKDRFTISRDDSKNTAYLQMNNLKTEDTAVYYCVRHGNFGNSYVSWFAYWGQGTLVTVSAASTKGPSVFPLAPSSKSTSGGTAALGCLVKDYFPEPVTVSWNSGALTSGVHTFPAVLQSSGLYSLSSVVTVPSSSLGTQTYICNVNHKPSNTKVDKRVEPKSCDKTHTCPPCPAPEAAGGPSVFLFPPKPKDTLMISRTPEVTCVVVDVSHEDPEVKFNWYVDGVEVHNAKTKPREEQYNSTYRVVSVLTVLHQDWLNGKEYKCKVSNKALPAPIEKTISKAKGQPREPQVYTLPPSREEMTKNQVSLSCAVKGFYPSDIAVEWESNGQPENNYKTTPPVLDSDGSFFLVSKLTVDKSRWQQGNVFSCSVMHEALHNRFTQKSLSLSPG", "notes": "Heterodimer of one DLL3 chain and one CD3 chain (scFab-Fc, knob-in-hole)"}},
  "molecular_target": "T1, Human DLL3-His (human, UniProt Q9NYJ7 27-492)",
  "T1 construct": "also called huDLL3-His; hu DLL3",
  "T1 sequence": "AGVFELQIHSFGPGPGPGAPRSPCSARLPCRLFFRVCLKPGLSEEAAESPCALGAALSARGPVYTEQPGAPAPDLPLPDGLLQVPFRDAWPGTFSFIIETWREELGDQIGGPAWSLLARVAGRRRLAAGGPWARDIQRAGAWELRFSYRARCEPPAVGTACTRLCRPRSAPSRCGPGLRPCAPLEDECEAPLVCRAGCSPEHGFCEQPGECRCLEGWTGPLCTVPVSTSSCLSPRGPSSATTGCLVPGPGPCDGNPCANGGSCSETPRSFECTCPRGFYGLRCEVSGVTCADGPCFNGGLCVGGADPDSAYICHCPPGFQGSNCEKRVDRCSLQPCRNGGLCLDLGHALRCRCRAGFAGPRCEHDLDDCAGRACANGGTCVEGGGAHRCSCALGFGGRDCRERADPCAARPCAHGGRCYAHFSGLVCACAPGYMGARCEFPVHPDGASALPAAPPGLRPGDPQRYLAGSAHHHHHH",
  "assay": "SPR (ProteOn XPR36), bispecific captured on protein A/G, DLL3 as analyte, Example 4A; Table 2A (Example 4A SPR run)",
  "protocol": "The binding affinity of purified DLL3/CD3 bispecific constructs for recombinant human and cyno DLL3-ECD and Fc-fusion proteins of human and cyno CD3 εγ subunits was determined by Surface Plasmon Resonance (SPR), using a ProteOn XPR36 instrument (Bio-Rad). The running buffer and all dilutions (except where stated) were done in PBS-T-EDTA. The GLM sensor chip (Bio-Rad) was normalized and pre-conditioned as per the manufacturer's recommendations. The sensor chip was activated with equal mixture of EDC/s-NHS in the horizontal direction for 300 sec at a flow rate of 30 ul/min and immobilized with protein A/G (20 ug/ml in 10 mM acetate pH 4.5) in the horizontal direction for 300 sec at a flowrate of 30 ul/min resulting in ˜5000 RU of protein A/G on the surface. The sensor chip was deactivated with 1M ethanolamine HCl in the horizontal direction for 300 sec at a flowrate of 30 μl/min.\nFor binding kinetic determination to DLL3, bispecific molecules were captured individually on the protein A/G surface vertically for 250 sec at a flowrate of 25 μl/min. The baseline was stabilized by injecting PBS-T-EDTA for 60 sec at a flowrate of 40 μl/min horizontally. The analyte (hu DLL3 or cy DLL3) was injected horizontally over the captured antibody for 600 sec at a flowrate of 40 μl/min and a dissociation for 2700 sec. […]",
  "data": [
    {"binder": "B1", "values": [
      {"measurement": "Kd", "value": "< 10", "unit": "pM"}
    ]}
  ]
}
